Assay results as given in publication PMC10392684, “Amyloid-like Hfq interaction with single-stranded DNA: involvement in recombination and replication in Escherichia coli”.

Key:
[1] = target: Hfq (Escherichia coli, UniProt P0A6X3 1-102); assay: fluorescence anisotropy; Anisotropy: buffer not given in material (as Geinguenaud 2011); pH ~5 stated for DNA complex formation; microscopy: Hfq stock in 50 mM Tris-HCl pH 7.5, 50 mM NH4Cl, 10% glycerol, 1 mM EDTA, exchanged to TE (10 mM Tris-HCl pH 8, 1 mM EDTA); TEM: 10 mM Tris-HCl, 1 mM EDTA, room temperature, 10 min; conditions: protein: recombinant; chain copies: 6; label: 5'-fluorescein
Sequence of Hfq (P0A6X3 whole entry): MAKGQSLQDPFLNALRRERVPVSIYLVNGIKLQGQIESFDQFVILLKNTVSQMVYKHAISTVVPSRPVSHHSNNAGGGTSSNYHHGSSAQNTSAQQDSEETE

[2] = target: T1, Hfq-CTR peptide (Escherichia coli, UniProt P0A6X3 64-102); assay: FTIR and SRCD; pH ~5; Anisotropy: buffer not given in material (as Geinguenaud 2011); pH ~5 stated for DNA complex formation; microscopy: Hfq stock in 50 mM Tris-HCl pH 7.5, 50 mM NH4Cl, 10% glycerol, 1 mM EDTA, exchanged to TE (10 mM Tris-HCl pH 8, 1 mM EDTA); TEM: 10 mM Tris-HCl, 1 mM EDTA, room temperature, 10 min
T1 chain: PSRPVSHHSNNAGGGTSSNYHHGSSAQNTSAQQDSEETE

Binder: AAAAAAA (ssDNA) [dA7]
- Kd [1]: 3500 ± 200 nM

Binder: AAAAAAAAAAAAAAAAAAAA (ssDNA) [dA20]
- Kd [1]: 183 ± 8 nM

B1: dA59 (ssDNA)
DNA: AAAAAAAAAAAAAAAAAAAAAAAAAAAAAAAAAAAAAAAAAAAAAAAAAAAAAAAAAAA
- Kd [1]: 166 ± 16 nM

B2: dA59 (spectroscopy) (ssDNA)
DNA: AAAAAAAAAAAAAAAAAAAAAAAAAAAAAAAAAAAAAAAAAAAAAAAAAAAAAAAAAAA
- binding result [2]: binds
